# Test results as given in PMC12987686 (RSC pharmaceutics, 2025).
# Peptide text beside a SMILES is read from it.
# Columns and labels:
# [1] = cited from earlier work
# [2] = Stability in the final formulation by analytical rad-HPLC; assay type: physicochemical; details: final formulation 10/30/60 v/v/v ethanol/1.0 M sodium acetate/saline, room temperature, mean ± SD, n = 4
# in vivo [3] = assay: in vivo; design: species or system mouse; details: CD1, mouse, iv, total radioactivity
# healthy CD1 mice = assay: in vivo; design: species or system mouse; details: mouse
# in vivo [4] = details: CD1, mouse, iv, total radioactivity
# in vivo [5] = assay: in vivo; design: species or system mouse; details: CD1, mouse, iv, total radioactivity; remark: listed apart in the source
# [6] = test system: CD1 mice with myocardial infarction; assay: in vivo; design: species or system mouse; details: mouse
# [7] = test system: CD1 mice with myocardial infarction; details: mouse, in vivo
compound,measurement,setting,value
CC(C)(C)n1ncc(OCc2ccc(COCC[18F])cc2)c(Cl)c1=O [[^18F]F-flurpiridaz],first-pass extraction fraction,[1],94%
"CC(C)C[C@H](NC(=O)[C@H](Cc1c[nH]cn1)NC(=O)[C@H](Cc1c[nH]c2ccccc12)NC(=O)[C@@H]1CCCN1C(=O)[C@H](C)NC(=O)CN1CCN(CC(=O)O)CCN(CC(=O)O)CC1)C(=O)N[C@@H](CO)C(=O)N[C@@H](CO)C(=O)N[C@@H](CCC(N)=O)C(=O)N[C@@H](Cc1ccc(O)cc1)C(=O)N[C@@H](CO)C(=O)N[C@@H](CCCNC(=N)N)C(=O)N[C@H](C(=O)O)[C@@H](C)O [[^68Ga]Ga-NOTA-CTP, metal not drawn] (HELM PEPTIDE1{[O=C(O)CN1CCN(CC(=O)O)CCN(CC(=O)[*:2])CC1].A.P.W.H.L.S.S.Q.Y.S.R.T}$$$$V2.0; N-terminus and C-terminus assumed)",radiochemical purity in the formulation,[2]; 0 min post-synthesis,98.78 ± 1.08%
same,radiochemical purity in the formulation,[2]; 2 h post-synthesis,92.52 ± 3.66%
same,SUV at 1 h,"in vivo [3]; 2.29 MBq, SUV heart",0.04 ± 0.04 SUV
same,SUV at 2 h,"in vivo [3]; 2.29 MBq, SUV heart",0.02 ± 0.01 SUV
same,SUV,"in vivo [3]; 2.29 MBq, SUV kidneys",2.64 ± 0.89 SUV
same,SUV at 1 h,"in vivo [3]; 2.29 MBq, SUV kidneys",0.92 ± 0.68 SUV
same,SUV at 2 h,"in vivo [3]; 2.29 MBq, SUV kidneys",0.1 SUV
same,SUV,"in vivo [3]; 2.29 MBq, SUV liver",1.42 ± 0.49 SUV
same,SUV at 1 h,"in vivo [3]; 2.29 MBq, SUV liver",0.69 ± 0.32 SUV
same,SUV at 2 h,"in vivo [3]; 2.29 MBq, SUV liver",0.14 SUV
same,SUV,"in vivo [3]; 2.29 MBq, SUV muscle",0.36 ± 0.12 SUV
same,SUV at 1 h,"in vivo [3]; 2.29 MBq, SUV muscle",0.18 ± 0.13 SUV
same,SUV at 2 h,"in vivo [3]; 2.29 MBq, SUV muscle",0.19 ± 0.18 SUV
same,SUV,"in vivo [3]; 2.29 MBq, SUV urinary bladder",7.51 ± 3.49 SUV
same,SUV at 1 h,"in vivo [3]; 2.29 MBq, SUV urinary bladder",10.6 ± 6.1 SUV
same,SUV at 2 h,in vivo [3]; SUV urinary bladder,9.02 ± 8.59 SUV
same,SUV in left ventricle (LV) vs right ventricle (RV),healthy CD1 mice,SUV in LV was lower than the RV
same,time of clearance from the blood,healthy CD1 mice,≤ 30 min
same,SUV at 2 h,in vivo [4]; SUV Cecum,2.36 ± 2.24 SUV
same,SUV at 2 h,in vivo [4]; SUV Heart,0.02 ± 0.006 SUV
same,SUV at 2 h,in vivo [4]; SUV Lung,0.04 ± 0.02 SUV
same,SUV at 2 h,in vivo [4]; SUV Pancreas,0.05 ± 0.06 SUV
same,SUV at 2 h,"in vivo [5]; 2.29 MBq, SUV heart",0.03 ± 0.02 SUV
same,SUV at 2 h,in vivo [5]; SUV Cecum,2.28 ± 3.64 SUV
same,SUV at 2 h,in vivo [5]; SUV Lung,0.04 ± 0.04 SUV
same,SUV at 2 h,in vivo [5]; SUV Pancreas,0.05 ± 0.04 SUV
same,SUV Heart,[6],0.03 ± 0.02
same,time of clearance from the blood,[7],≤ 30 min
[15OH2] [^15O-water],first-pass extraction fraction,[1],~ 100%
[82Rb] [^82Rb],first-pass extraction fraction,[1],~ 65%
